Results: the RNAGym collection of RNA variant scans (doi:10.7554/elife.90254)

B1: OR4K15 (parent)
chain: GUUAACGGUCAUAGGCCAUGGAAACUAGGAGCACCAUUUCGCUGCCAGUGAAGAAAUGAACAAAGAAAAUCUGGGCCAGGCAGGCAUCAAAAGAAAUAGUCUUGCGCUCAACCAGAAAGUCUGUAAUCAUUUUAAGGGUA

Variants of: B1
Experiment: self-cleavage, relative activity (ratio to wild type); higher = more cleavage; in vitro, sequencing; the parent is a self-cleaving ribozyme

| Variant | self-cleavage |
| --- | --- |
| A78G A116G | 0.15 |
| G74U C113A | 0.04 |
| C76G A96U | 0.09 |
| G75U A117G | 0.15 |
| A78G A82U | 0.19 |
| A78G G137U | 0.25 |
| C77U G79U | 0.13 |
| G74A U127C | 0.02 |
| A78C C109U | 0.19 |
| G75A G138A | 0.13 |
| A78C U122C | 0.1 |
| A78G A118G | 0.29 |
| C76A A90G | 0.14 |
| C77A | 0.76 |
| C77U | 1.54 |
| G75U A126G | 0.08 |
| G75A G119A | 0.17 |
| C77U A126U | 1.88 |
| A78C U131C | 0.17 |
| A78C U103C | 0.14 |
| G75C A110G | 0.02 |
| G74C A110U | 0.14 |
| A78G U127C | 0.22 |
| A78G U127G | 0.27 |

| Variant | self-cleavage |
| --- | --- |
| G74C U127C | 0.13 |
| A78C U108A | 0.01 |
| C76U C105U | 0.03 |
| G75C | 0.17 |
| G75A | 0.11 |
| G75U | 0.12 |
| C77A U100C | 0.61 |
| A78C U132C | 0.33 |
| G74A A82G | 0.26 |
| G74A A94C | 0.06 |
| G74A A94U | 0.19 |
| G75C U130C | 0.08 |
| G73U U108C | 0.02 |
| G74U A111G | 0.04 |
| C77U U132C | 1.95 |
| G74U U87A | 0.15 |
| G75U U133A | 0.15 |
| C76A U131C | 0.08 |
| C76A A96G | 0.19 |
| G74A U87A | 0.22 |
| A78G A91G | 0.13 |
| A78G A91U | 0.22 |
| G75C U97C | 0.12 |
| C76U A78C | 0.11 |

| Variant | self-cleavage |
| --- | --- |
| G75A U108C | 0.03 |
| A78G U87C | 0.05 |
| A78G U87A | 0.08 |
| A78C G106A | 0.03 |
| A78G U108A | 0.03 |
| A78G U108C | 0.01 |
| G74U G83A | 0.16 |
| G74A A95G | 0.35 |
| G75A U122C | 0.08 |
| G75A U122A | 0.17 |
| A78G G80A | 0.13 |
| C76A A117G | 0.18 |
| C77U A98G | 0.88 |
| G75A C77U | 0.11 |
| G74A U124A | 0.1 |
| A78G C81A | 0.1 |
| A78G C81U | 0.14 |
| A78G A98U | 0.39 |
| A78G A98C | 0.27 |
| A78G A98G | 0.08 |
| G75A A82G | 0.12 |
| G74A U103C | 0.08 |
| G75A U87C | 0.14 |
| G75C U103G | 0.02 |

| Variant | self-cleavage |
| --- | --- |
| G75C U103C | 0.12 |
| A78G A96U | 0.4 |
| G73U C105U | 0.01 |
| C77U U120C | 1.21 |
| A78G A140G | 0.32 |
| A78G A140U | 0.36 |
| C77U A82G | 1.26 |
| C77U U100C | 2.13 |
| G74C A96G | 0.29 |
| C77U A89G | 2.1 |
| G75A A116U | 0.05 |
| A78G A135G | 0.19 |
| G74A A125G | 0.05 |
| G75A U120C | 0.02 |
| C77A A78G | 0.53 |
| A78G G106A | 0.03 |
| C77U A91G | 1.91 |
| C77A A96G | 1 |
| A78G A89G | 0.18 |
| C76A A111U | 0.03 |
| A78C A116G | 0.13 |
| A78G A94G | 0.19 |
| C77A A89G | 0.61 |
| A78G U130G | 0 |

| Variant | self-cleavage |
| --- | --- |
| A78G U130C | 0.3 |
| A78G U130A | 0.17 |
| G75A A91G | 0.14 |
| G74U A114U | 0.04 |
| A78G A114G | 0.05 |
| G75U U127C | 0.11 |
| G74A A140U | 0.22 |
| G74C A140G | 0.23 |
| A78C U87C | 0.27 |
| A78G U124C | 0.14 |
| C77U C113U | 0.27 |
| G74A A96G | 0.24 |
| G74A A96C | 0.14 |
| G74C A111G | 0.02 |
| A78G U102C | 0.31 |
| G75A G93A | 0.14 |
| A78C A82G | 0.11 |
| C76U A118G | 0.1 |
| G74U G119A | 0.19 |
| C76A U120A | 0.19 |
| G75A A78U | 0.09 |
| G74U A116U | 0.03 |
| A78C A96G | 0.27 |
| A78G U120A | 0.22 |

| Variant | self-cleavage |
| --- | --- |
| C76U U108A | 0.01 |
| C76G | 0.16 |
| C76A | 0.1 |
| C76U | 0.05 |
| G75A C105U | 0.01 |
| A78G G138A | 0.2 |
| A78G U97A | 0.27 |
| A78G U97G | 0.27 |
| G74A U108C | 0.01 |
| C76U U87C | 0.17 |
| A78G U103C | 0.11 |
| G74A U122A | 0.18 |
| A78G A126C | 0.09 |
| A78G A129U | 0.25 |
| G75A U103C | 0.06 |
| G75C A126G | 0.12 |
| G75C A126C | 0.09 |
| A78C U130C | 0.21 |
| G75C A98G | 0.07 |
| G74A A110G | 0.02 |
| C77U A114U | 0.14 |
| A78C U102C | 0.42 |
| G74U A118G | 0.1 |
| G74A A118G | 0.14 |

| Variant | self-cleavage |
| --- | --- |
| A78C A91C | 0.19 |
| C77U A117G | 2.83 |
| C76U A96C | 0.1 |
| C77U U87C | 1.31 |
| C77U U102A | 1.57 |
| G75C U122C | 0.12 |
| G74U C121A | 0.36 |
| A78G A117G | 0.22 |
| C77U U130C | 1.61 |
| G74A A117U | 0.19 |
| G74A A117G | 0.2 |
| G75U C85U | 0.21 |
| G75A A95G | 0.05 |
| G75A A125G | 0.03 |
| A78C U133C | 0.24 |
| A78G U100A | 0.04 |
| A78G U100C | 0.31 |
| G74A C76U | 0.11 |
| G75C A129G | 0.07 |
| A78G U122A | 0.13 |
| A78G A90G | 0.24 |
| G75C A117G | 0.15 |
| G75A A135G | 0.04 |
